For one substance, IC50 of GO cytotoxicity, HL-60 cells (viable cell number, Celltiter Glo, 72 hours) and IC50 of GO cytotoxicity, THP-1 cells (viable cell number, Celltiter Glo, 72 hours) results are on record in US20200318071A1.

This experiment deals with human CD33 (full length, CD33M) (human) (UniProt P20138). Briefly: cell-based or functional assay.
Chain of UniProt P20138 (P20138 18-364 limits assumed): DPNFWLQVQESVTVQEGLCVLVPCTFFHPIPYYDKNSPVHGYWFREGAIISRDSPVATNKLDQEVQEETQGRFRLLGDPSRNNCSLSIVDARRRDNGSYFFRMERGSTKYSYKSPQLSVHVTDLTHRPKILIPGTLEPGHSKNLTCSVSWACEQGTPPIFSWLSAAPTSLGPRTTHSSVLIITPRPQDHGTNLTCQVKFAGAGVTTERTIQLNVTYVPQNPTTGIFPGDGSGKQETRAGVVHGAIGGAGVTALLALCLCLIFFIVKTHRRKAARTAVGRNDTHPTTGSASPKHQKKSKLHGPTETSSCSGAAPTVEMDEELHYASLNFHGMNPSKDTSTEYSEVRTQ

For the substance gemtuzumab ozogamicin (antibody), the IC50 of GO cytotoxicity, HL-60 cells (viable cell number, Celltiter Glo, 72 hours) was 35.5 ng/mL and the IC50 of GO cytotoxicity, THP-1 cells (viable cell number, Celltiter Glo, 72 hours) stood at 16.3 ng/mL.
